Source: patent publication US20020142982A1 (published 2002)

Molecular target: T1, beta-catenin (endogenous, HUVEC) (human (HUVEC), UniProt P35222 2-781)
T1 construct: also called β-catenin
T1 sequence (looked up): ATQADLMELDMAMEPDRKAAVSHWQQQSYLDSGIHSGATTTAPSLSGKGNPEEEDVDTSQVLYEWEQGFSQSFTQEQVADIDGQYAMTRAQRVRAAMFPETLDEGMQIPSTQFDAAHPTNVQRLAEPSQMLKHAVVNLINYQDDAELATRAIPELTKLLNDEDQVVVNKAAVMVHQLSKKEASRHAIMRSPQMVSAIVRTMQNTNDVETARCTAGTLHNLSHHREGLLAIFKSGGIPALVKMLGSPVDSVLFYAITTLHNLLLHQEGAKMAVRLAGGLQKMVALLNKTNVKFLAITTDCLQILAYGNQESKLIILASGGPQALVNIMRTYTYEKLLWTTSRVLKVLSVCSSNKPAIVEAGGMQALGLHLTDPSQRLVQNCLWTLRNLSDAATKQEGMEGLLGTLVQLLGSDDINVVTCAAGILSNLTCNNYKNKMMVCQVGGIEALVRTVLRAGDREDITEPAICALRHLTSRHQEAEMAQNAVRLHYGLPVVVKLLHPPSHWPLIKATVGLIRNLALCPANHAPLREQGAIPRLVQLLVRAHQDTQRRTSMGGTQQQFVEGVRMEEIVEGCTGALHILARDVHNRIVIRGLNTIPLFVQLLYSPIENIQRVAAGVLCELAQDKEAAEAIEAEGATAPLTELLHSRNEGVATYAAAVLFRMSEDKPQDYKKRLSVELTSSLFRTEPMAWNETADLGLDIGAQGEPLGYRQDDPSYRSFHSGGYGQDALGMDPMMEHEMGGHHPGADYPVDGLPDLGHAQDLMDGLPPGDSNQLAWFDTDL
Assay: co-immunoprecipitation of 35S-labelled, DSP cross-linked detergent-insoluble HUVEC extracts
Protocol: HUVEC were labeled to steady state with ^35Smethionine (250 μCi/mL, NEN DuPont) for 24 hours. After stimulation with 500 nM SPP for 1 hour, cells were fractionated with 0.5% TX-100. After centrifugation (15,000 g, 15 minutes), the protein complexes in detergent-insoluble fractions were cross-linked with 0.5 mM Dithiobis[succinimidyl propionate] (DSP; Pierce Chemical Co., Rockford, Ill.) (Hinck, L., J. Cell Biol. 125: 1327-1340 (1994)), and extracted with 1% TX-100-1% SDS as described above. Cell extracts were then immunoprecipitated with antibodies to VE cadherin, β-catenin, γ-catenin, or p120 Src (p120^cas, Transduction Laboratories). The immunoprecipitated complexes were then reduced by incubating in sample buffer containing 2% β-mercaptoethanol at 95° C. for 10 minutes, 10 μL dithiothreitol (1 M) was added to each gel lanes before protein separation by SDS-PAGE.

B1: gamma-catenin (endogenous, HUVEC) (other, human (HUVEC), UniProt P14923 1-745, looked up)
chain: MEVMNLMEQPIKVTEWQQTYTYDSGIHSGANTCVPSVSSKGIMEEDEACGRQYTLKKTTTYTQGVPPSQGDLEYQMSTTARAKRVREAMCPGVSGEDSSLLLATQVEGQATNLQRLAEPSQLLKSAIVHLINYQDDAELATRALPELTKLLNDEDPVVVTKAAMIVNQLSKKEASRRALMGSPQLVAAVVRTMQNTSDLDTARCTTSILHNLSHHREGLLAIFKSGGIPALVRMLSSPVESVLFYAITTLHNLLLYQEGAKMAVRLADGLQKMVPLLNKNNPKFLAITTDCLQLLAYGNQESKLIILANGGPQALVQIMRNYSYEKLLWTTSRVLKVLSVCPSNKPAIVEAGGMQALGKHLTSNSPRLVQNCLWTLRNLSDVATKQEGLESVLKILVNQLSVDDVNVLTCATGTLSNLTCNNSKNKTLVTQNSGVEALIHAILRAGDKDDITEPAVCALRHLTSRHPEAEMAQNSVRLNYGIPAIVKLLNQPNQWPLVKATIGLIRNLALCPANHAPLQEAAVIPRLVQLLVKAHQDAQRHVAAGTQQPYTDGVRMEEIVEGCTGALHILARDPMNRMEIFRLNTIPLFVQLLYSSVENIQRVAAGVLCELAQDKEAADAIDAEGASAPLMELLHSRNEGTATYAAAVLFRISEDKNPDYRKRVSVELTNSLFKHDPAAWEAAQSMIPINEPYGDDMDATYRPMYSSDVPLDPLEMHMDMDGDYPIDTYSDGLRPPYPTADHMLA
notes: also called γ-catenin
B1: no binding.
